Measured values taken from patent US20130196320A1, “METHOD FOR IMPROVING CLEAVAGE OF DNA BY ENDONUCLEASE SENSITIVE TO METHYLATION” (CELLECTIS, priority 2010, published 2013).
Read-outs that look alike come from different tables or passages of the source.

Molecular target: ADCY9.1 DNA target
Assay: In vitro binding assay, fluorescence anisotropy of fluorescein-labeled ADCY9.1 duplex
Experimental: FIG. 12: Spectrofluorimetric titration of fluorescein-labeled ADCY9.1 by ADCY9. 50 nM of ADCY9.1 duplex was incubated with increasing concentrations of ADCY9 (from 0 to 1.5 μM) in binding buffer (10 mM Tris-HCl, 150 mM NaCl, 10 mM CaCl2, 10 mM DTT, pH8) at 25° C. After 30 minutes incubation, the fluorescence anisotropy of the mixture was recorded with a Pherastar Plus (BMG Labtech) operating in fluorescence polarization end point mode with excitation and emission wavelengths set to 495 and 520 nm respectively. Normalized fluorescence anisotropy is plotted as a function of ADCY9 concentration. Apparent dissociation constant were determined by fitting raw data by an hyperbolic function (Ax=(A∞*[Meganuclease])/(Kd+[Meganuclease]) with Ax, the fluorescence anisotropy value obtained at a given meganuclease concentration, A∞ the fluorescence anisotropy value obtained at saturating concentration of meganuclease and Kd the dissociation constant of the equilibrium studied).
Fluorescein labeled C1234 oligonucleotides were synthesized and HPLC-purified by Eurogentec. […] C 1234 duplex and fluorescein final concentrations were assessed by spectrophotometry using their respective extinction coefficients ε260nm=62900 M^−1 cm^−1 and ε495nm=83000 M^−1 cm^−1. […]

B1: ADCY9: engineered meganuclease (SEQ ID NO: 3) designed to cleave adenylate cyclase 9 gene (protein)
chain: MANTKYNEEFLLYLAGFVDGDGSIIAQIKPNQSYKFKHQLSLTFRVTQKTQRRWFLDKLVDEIGVGYVRDSGSVSNYDLSEIKPLHNFLTQLQPFLELKQKQANLVLKIIEQLPSAKESPDKFLEVCTWVDQVAALNDSKTRKTTSETVRAVLDSLSEKKKSSPAAGGSDKYNQALSKYNQALSKYNQALSGGGGSNKKFLLYLAGFVDSDGSIIAQIKPDQSYKFKHQLGLTFQVTQKTQRRWFLDKLVDRIGVGYVRDRGSVSDYILSEIKPLHNFLTQLQPFLKLKQKQANLVLKIIEQLPSAKESPDKFLEVCTWVDQVAALNDSKTRKTTSETVRAVLDSLSEKKKSSP
ADCY9.1_Me −3a/−2b (fully methylated), sigmoidal pattern, read-out: Kd (apparent)
  Kd: 431 ± 30 nM
Unmethylated ADCY9.1, read-out: Kd
  Kd: 190 ± 19 nM
